The values below come from article PMC2576468, “The orthologue of the "acatalytic" mammalian ART4 in chicken is an arginine-specific mono-ADP-ribosyltransferase” (BMC Molecular Biology, 2008).

For orientation: Km means the concentration of substrate that gives half-maximal velocity.

Substrate in the data set: NC(=O)c1ccc[n+]([C@@H]2O[C@H](COP(=O)([O-])OP(=O)(O)OC[C@H]3O[C@@H](n4cnc5c4ncn4ccnc54)[C@H](O)[C@@H]3O)[C@@H](O)[C@H]2O)c1
Put plainly: purified protein. It counts as biochemical, Gallus gallus. The note with it: poly-L-arginine 1 mg/ml as acceptor, PBS pH 7.4, room temperature, glycosylated protein (no PNGase F).

B1: recombinant chicken ART4 (chART4) (Gallus gallus) (protein)
chain: SHLMMDMALHSFDDQYLGCREQMMEELERGDYFQKEIAANKNYSSLWKKAQEALLKSSVGLLREMHDSHATALMAYTMNSSLHSQLNWATSTAGRSPEQYRHNFSFKYFHFYLTTAIQIMKQWQSSKDNVRKRHCYRVHRGVKDLYIKATVGSIVRFGRFTSTSCLWNEAQKFGNETLFTVTTCLGAAMQGFSYYTSEKEVLIPPYEIFLVKNFFRTRRGNRLHLHSVGNYSKYHYQLLEASRIKNGGSTA
notes: N-glycosylated
B1: the Km is 1.0 ± 0.18 µM.
